B1: NRC3_random_hg19_132_o1 (dsDNA)
DNA 1: GCCAATGCCAGCTACCAGGAGGCTGAGGTGTGAGAGGCGATTGACAGCGTAGAATGAAGG
DNA 2: CCTTCATTCTACGCTGTCAATCGCCTCTCACACCTCAGCCTCCTGGTAGCTGGCATTGGC
B2: NRC3_random_hg19_30_o1 (dsDNA)
DNA 1: GCTGGAATGCAGTGGCACGATCACACATCACTGCAAGCGATTGACAGCGTAGAATGAAGG
DNA 2: CCTTCATTCTACGCTGTCAATCGCTTGCAGTGATGTGTGATCGTGCCACTGCATTCCAGC
B3: NRC3_random_hg19_161_o1 (dsDNA)
DNA 1: GCTCTGTGGCCTCGGCTCTCCAGGACTCGGAGGCTCGCGATTGACAGCGTAGAATGAAGG
DNA 2: CCTTCATTCTACGCTGTCAATCGCGAGCCTCCGAGTCCTGGAGAGCCGAGGCCACAGAGC
B4: NRC3_wobSeed100_DR4_A24T_o1 (dsDNA)
DNA 1: GCCCTACTGGGCCACGAAAGGTCTTTGATTCAGTGAGCGATTGACAGCGTAGAATGAAGG
DNA 2: CCTTCATTCTACGCTGTCAATCGCTCACTGAATCAAAGACCTTTCGTGGCCCAGTAGGGC
B5: NRC3_random_hg19_107_o1 (dsDNA)
DNA 1: GCCTCAGGCTGAGTTGTGGTAGTGTAATCATAGCTCGCGATTGACAGCGTAGAATGAAGG
DNA 2: CCTTCATTCTACGCTGTCAATCGCGAGCTATGATTACACTACCACAACTCAGCCTGAGGC
B6: NRC3_random_hg19_154_o1 (dsDNA)
DNA 1: GCAAGCATAGCTTTGAGAGCAGTAAAGTGGTTCATTGCGATTGACAGCGTAGAATGAAGG
DNA 2: CCTTCATTCTACGCTGTCAATCGCAATGAACCACTTTACTGCTCTCAAAGCTATGCTTGC
B7: NRC3_random_hg19_108_o1 (dsDNA)
DNA 1: GCTAGGAATGTGAGTTTCTCTAAGTTCTATTCCTGGGCGATTGACAGCGTAGAATGAAGG
DNA 2: CCTTCATTCTACGCTGTCAATCGCCCAGGAATAGAACTTAGAGAAACTCACATTCCTAGC
B8: NRC3_random_hg19_409_o1 (dsDNA)
DNA 1: GCGACTGCACTCCAGCCTGGGTGACACAACAAGACTGCGATTGACAGCGTAGAATGAAGG
DNA 2: CCTTCATTCTACGCTGTCAATCGCAGTCTTGTTGTGTCACCCAGGCTGGAGTGCAGTCGC
B9: NRC3_random_hg19_251_o1 (dsDNA)
DNA 1: GCCTGTGGAATCCAACATGCCAAATGCTTGCTTGAGGCGATTGACAGCGTAGAATGAAGG
DNA 2: CCTTCATTCTACGCTGTCAATCGCCTCAAGCAAGCATTTGGCATGTTGGATTCCACAGGC
B10: NRC3_wobSeed124_DR5_C13G_o1 (dsDNA)
DNA 1: GCCCTACTGGGCGATTCAGAGGTCATTGATCATATGGCGATTGACAGCGTAGAATGAAGG
DNA 2: CCTTCATTCTACGCTGTCAATCGCCATATGATCAATGACCTCTGAATCGCCCAGTAGGGC
B11: NRC3_random_hg19_125_o1 (dsDNA)
DNA 1: GCCAACCTACCAAACCATAACCAGTGTGTTTGCTCCGCGATTGACAGCGTAGAATGAAGG
DNA 2: CCTTCATTCTACGCTGTCAATCGCGGAGCAAACACACTGGTTATGGTTTGGTAGGTTGGC
B12: NRC3_random_hg19_247_o1 (dsDNA)
DNA 1: GCGCATGCCACAGGACTGGTAGGCAGCTCCATCTGCGCGATTGACAGCGTAGAATGAAGG
DNA 2: CCTTCATTCTACGCTGTCAATCGCGCAGATGGAGCTGCCTACCAGTCCTGTGGCATGCGC
B13: NRC3_random_hg19_335_o1 (dsDNA)
DNA 1: GCATCTATGTGCATATGGAAGAAAGGAATGCAAGATGCGATTGACAGCGTAGAATGAAGG
DNA 2: CCTTCATTCTACGCTGTCAATCGCATCTTGCATTCCTTTCTTCCATATGCACATAGATGC
B14: NRC3_wobSeed123_DR5_G26A_o1 (dsDNA)
DNA 1: GCCCTCGGAGGACAACAGGAGGTCAAAGCTGCCAGAGCGATTGACAGCGTAGAATGAAGG
DNA 2: CCTTCATTCTACGCTGTCAATCGCTCTGGCAGCTTTGACCTCCTGTTGTCCTCCGAGGGC
B15: NRC3_random_hg19_438_o1 (dsDNA)
DNA 1: GCTGTCGCCATCAAGCTACCATTGACTTTCTTCACAGCGATTGACAGCGTAGAATGAAGG
DNA 2: CCTTCATTCTACGCTGTCAATCGCTGTGAAGAAAGTCAATGGTAGCTTGATGGCGACAGC
B16: NRC3_random_hg19_191_o1 (dsDNA)
DNA 1: GCAGGAGAGACAGAGGAAGAGATGTGACATCAGAAGGCGATTGACAGCGTAGAATGAAGG
DNA 2: CCTTCATTCTACGCTGTCAATCGCCTTCTGATGTCACATCTCTTCCTCTGTCTCTCCTGC
B17: NRC3_random_hg19_3_o1 (dsDNA)
DNA 1: GCGCCAGAGGTGGAATGATATGATATGTCTCTGTGTGCGATTGACAGCGTAGAATGAAGG
DNA 2: CCTTCATTCTACGCTGTCAATCGCACACAGAGACATATCATATCATTCCACCTCTGGCGC
B18: NRC3_random_hg19_17_o1 (dsDNA)
DNA 1: GCCTGCAGTTTCACTTTGCATGTCTTCTTTCCTCAAGCGATTGACAGCGTAGAATGAAGG
DNA 2: CCTTCATTCTACGCTGTCAATCGCTTGAGGAAAGAAGACATGCAAAGTGAAACTGCAGGC
B19: NRC3_random_hg19_370_o1 (dsDNA)
DNA 1: GCTTTCTTTCTCTCTTGTCTGATTGCTCTGGCTAGAGCGATTGACAGCGTAGAATGAAGG
DNA 2: CCTTCATTCTACGCTGTCAATCGCTCTAGCCAGAGCAATCAGACAAGAGAGAAAGAAAGC
B20: NRC3_random_hg19_461_o1 (dsDNA)
DNA 1: GCGCCTGACTCCAGCCCACAGGCTGGGAGTGGAAGTGCGATTGACAGCGTAGAATGAAGG
DNA 2: CCTTCATTCTACGCTGTCAATCGCACTTCCACTCCCAGCCTGTGGGCTGGAGTCAGGCGC
B21: NRC3_wobSeed18_DR0_C13A_o1 (dsDNA)
DNA 1: GCGATACAGGGTAAAGGCCAGAGTACGCGTATTGATGCGATTGACAGCGTAGAATGAAGG
DNA 2: CCTTCATTCTACGCTGTCAATCGCATCAATACGCGTACTCTGGCCTTTACCCTGTATCGC
B22: NRC3_random_hg19_358_o1 (dsDNA)
DNA 1: GCCTAGCAGCAACCAACCACAATGGCAAGGATGTAGGCGATTGACAGCGTAGAATGAAGG
DNA 2: CCTTCATTCTACGCTGTCAATCGCCTACATCCTTGCCATTGTGGTTGGTTGCTGCTAGGC
B23: NRC3_random_hg19_274_o1 (dsDNA)
DNA 1: GCTTCGTGCCCTTCCCTTGGACAGACTCCCTTGGCAGCGATTGACAGCGTAGAATGAAGG
DNA 2: CCTTCATTCTACGCTGTCAATCGCTGCCAAGGGAGTCTGTCCAAGGGAAGGGCACGAAGC
B24: NRC3_wobSeed89_DR3_C26G_o1 (dsDNA)
DNA 1: GCCTATGTAGGTTAAGGGGGTCATTGAGTTTGAAAGGCGATTGACAGCGTAGAATGAAGG
DNA 2: CCTTCATTCTACGCTGTCAATCGCCTTTCAAACTCAATGACCCCCTTAACCTACATAGGC
B25: NRC3_random_hg19_337_o1 (dsDNA)
DNA 1: GCGTATTGAGCATCTATGATCTGCCAGTTAGGCTGCGCGATTGACAGCGTAGAATGAAGG
DNA 2: CCTTCATTCTACGCTGTCAATCGCGCAGCCTAACTGGCAGATCATAGATGCTCAATACGC
B26: NRC3_random_hg19_353_o1 (dsDNA)
DNA 1: GCATAGAACTTAACTACCACCTCTCATTACCTGGAGGCGATTGACAGCGTAGAATGAAGG
DNA 2: CCTTCATTCTACGCTGTCAATCGCCTCCAGGTAATGAGAGGTGGTAGTTAAGTTCTATGC
B27: NRC3_random_hg19_260_o1 (dsDNA)
DNA 1: GCGGAAGTCCTCTTTGCCACATTTCCAACAGATGGCGCGATTGACAGCGTAGAATGAAGG
DNA 2: CCTTCATTCTACGCTGTCAATCGCGCCATCTGTTGGAAATGTGGCAAAGAGGACTTCCGC
B28: NRC3_random_hg19_115_o1 (dsDNA)
DNA 1: GCATCACCTGAGGCCAGGAATTCGAACCAGCATGGCGCGATTGACAGCGTAGAATGAAGG
DNA 2: CCTTCATTCTACGCTGTCAATCGCGCCATGCTGGTTCGAATTCCTGGCCTCAGGTGATGC
B29: NRC3_random_hg19_426_o1 (dsDNA)
DNA 1: GCTGGAATCCTAGTGCTTTGGGAGGCTGAGGCTGGAGCGATTGACAGCGTAGAATGAAGG
DNA 2: CCTTCATTCTACGCTGTCAATCGCTCCAGCCTCAGCCTCCCAAAGCACTAGGATTCCAGC

Each binder was assayed against VDR:RXRa (Homo sapiens, UniProt P11473;P19793 full;full) (assay: no ligand; PBM; 270 nM : 90 nM RXRa; PBS pH 7.4, 2% milk, 0.02% Triton X-100, 1 mM DTT, BSA, 0.4 mg/ml salmon testes DNA). Settings: tags: His kept;His cleaved; copies: 1;1; label: surface-attached array probe.
Sequence of VDR:RXRa (P11473 whole entry, chain 1 of 2): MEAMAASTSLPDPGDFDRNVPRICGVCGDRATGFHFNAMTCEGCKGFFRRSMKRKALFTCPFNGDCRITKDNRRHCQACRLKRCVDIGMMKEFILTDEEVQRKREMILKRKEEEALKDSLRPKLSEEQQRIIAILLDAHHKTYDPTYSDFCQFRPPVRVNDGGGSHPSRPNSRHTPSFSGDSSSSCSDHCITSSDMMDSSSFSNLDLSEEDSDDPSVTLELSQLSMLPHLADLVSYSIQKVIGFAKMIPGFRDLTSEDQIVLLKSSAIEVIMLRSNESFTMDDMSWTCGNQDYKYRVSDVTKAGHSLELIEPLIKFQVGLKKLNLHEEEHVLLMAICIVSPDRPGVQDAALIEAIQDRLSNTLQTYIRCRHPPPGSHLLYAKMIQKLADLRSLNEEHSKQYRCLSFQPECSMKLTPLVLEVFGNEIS
Sequence of VDR:RXRa (P19793 whole entry, chain 2 of 2): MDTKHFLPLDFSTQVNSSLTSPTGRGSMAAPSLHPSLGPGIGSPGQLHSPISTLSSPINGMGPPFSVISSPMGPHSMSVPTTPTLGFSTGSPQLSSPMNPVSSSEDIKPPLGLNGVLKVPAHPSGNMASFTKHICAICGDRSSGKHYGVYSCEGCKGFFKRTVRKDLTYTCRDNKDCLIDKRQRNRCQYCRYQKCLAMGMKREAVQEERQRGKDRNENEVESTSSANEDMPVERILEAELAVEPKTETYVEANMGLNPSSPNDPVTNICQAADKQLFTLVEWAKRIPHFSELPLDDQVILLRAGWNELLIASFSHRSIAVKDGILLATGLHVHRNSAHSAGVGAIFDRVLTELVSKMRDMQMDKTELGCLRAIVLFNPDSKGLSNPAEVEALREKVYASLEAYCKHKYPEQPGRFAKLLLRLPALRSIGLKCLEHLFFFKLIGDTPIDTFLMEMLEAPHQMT
Outline: (§1)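 For binding z-scores, the reference was random background probes on custom Agilent 4×180K protein-binding microarrays. These arrays were incubated 1 h with ligand-free nuclear receptor dimers in PBS pH 7.4, 2% milk, 0.02% Triton X-100, 1 mM DTT, 0.2 mg/mL BSA and 0.4 mg/ml salmon testes DNA. Fluorescence was scanned after antibody detection of each partner (one per run) and regression-normalized.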

Binder	binding signal
B1	-0.75 PBM z-score against 500 random probes
B2	-0.46 PBM z-score against 500 random probes
B3	-0.38 PBM z-score against 500 random probes
B4	-0.14 PBM z-score against 500 random probes
B5	-0.64 PBM z-score against 500 random probes
B6	-0.41 PBM z-score against 500 random probes
B7	0.17 PBM z-score against 500 random probes
B8	-0.08 PBM z-score against 500 random probes
B9	-0.19 PBM z-score against 500 random probes
B10	3.28 PBM z-score against 500 random probes
B11	0.33 PBM z-score against 500 random probes
B12	-0.83 PBM z-score against 500 random probes
B13	-0.62 PBM z-score against 500 random probes
B14	3.35 PBM z-score against 500 random probes
B15	-0.03 PBM z-score against 500 random probes
B16	0.21 PBM z-score against 500 random probes
B17	-0.61 PBM z-score against 500 random probes
B18	0.19 PBM z-score against 500 random probes
B19	0.44 PBM z-score against 500 random probes
B20	-1.25 PBM z-score against 500 random probes
B21	0.02 PBM z-score against 500 random probes
B22	-0.81 PBM z-score against 500 random probes
B23	0.25 PBM z-score against 500 random probes
B24	8.2 PBM z-score against 500 random probes
B25	-0.54 PBM z-score against 500 random probes
B26	0.31 PBM z-score against 500 random probes
B27	0.14 PBM z-score against 500 random probes
B28	-0.3 PBM z-score against 500 random probes
B29	-0.9 PBM z-score against 500 random probes

The binders below were run against PPARa:RXRa (Homo sapiens, UniProt Q07869;P19793 full;full) in the same assay as above. Settings: tags: GST kept;His cleaved; copies: 1;1; label: surface-attached array probe.
Sequence of PPARa:RXRa (Q07869 whole entry, chain 1 of 2): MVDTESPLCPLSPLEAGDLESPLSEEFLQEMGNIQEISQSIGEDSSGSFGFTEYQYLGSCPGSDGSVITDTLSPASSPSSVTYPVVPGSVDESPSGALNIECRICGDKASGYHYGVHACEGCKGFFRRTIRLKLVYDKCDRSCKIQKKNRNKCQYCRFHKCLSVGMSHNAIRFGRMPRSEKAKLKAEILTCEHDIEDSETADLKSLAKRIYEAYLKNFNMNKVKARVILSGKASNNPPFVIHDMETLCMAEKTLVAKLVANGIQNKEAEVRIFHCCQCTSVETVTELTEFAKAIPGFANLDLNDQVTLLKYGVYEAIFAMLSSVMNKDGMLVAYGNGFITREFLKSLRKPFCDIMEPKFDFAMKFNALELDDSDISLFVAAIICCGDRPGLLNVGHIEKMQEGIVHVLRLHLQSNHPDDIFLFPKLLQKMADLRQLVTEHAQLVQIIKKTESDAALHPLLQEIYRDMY
Sequence of PPARa:RXRa (P19793 whole entry, chain 2 of 2): as the sequence (P19793 whole entry, chain 2 of 2) above
Outline: as §1

Binder	binding signal
B10	3.07 PBM z-score against 500 random probes
B15	0.12 PBM z-score against 500 random probes
B24	6.55 PBM z-score against 500 random probes
B26	-0.07 PBM z-score against 500 random probes
B27	0.42 PBM z-score against 500 random probes
B28	-0.52 PBM z-score against 500 random probes
B29	-0.97 PBM z-score against 500 random probes

What follows are binders tested against RARg:RXRa (Homo sapiens, UniProt P13631;P19793 full;full) in the same assay as above. Settings: tags: His kept;His cleaved; copies: 1;1; label: surface-attached array probe.
Sequence of RARg:RXRa (P13631 whole entry, chain 1 of 2): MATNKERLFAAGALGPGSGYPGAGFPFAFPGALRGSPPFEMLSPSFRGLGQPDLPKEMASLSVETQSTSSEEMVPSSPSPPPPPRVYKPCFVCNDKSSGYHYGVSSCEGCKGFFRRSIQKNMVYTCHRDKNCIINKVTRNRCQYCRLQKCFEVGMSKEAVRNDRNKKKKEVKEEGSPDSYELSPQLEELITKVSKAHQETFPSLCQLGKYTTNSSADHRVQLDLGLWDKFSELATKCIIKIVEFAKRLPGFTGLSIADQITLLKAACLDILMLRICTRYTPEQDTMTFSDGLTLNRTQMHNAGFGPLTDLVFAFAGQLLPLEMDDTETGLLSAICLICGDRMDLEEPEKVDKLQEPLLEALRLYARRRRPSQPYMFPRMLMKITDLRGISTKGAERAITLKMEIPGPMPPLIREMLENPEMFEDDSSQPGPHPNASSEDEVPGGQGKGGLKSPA
Sequence of RARg:RXRa (P19793 whole entry, chain 2 of 2): as the sequence (P19793 whole entry, chain 2 of 2) above
Outline: as §1

Binder	binding signal
B1	-0.61 PBM z-score against 500 random probes
B5	-0.79 PBM z-score against 500 random probes
B7	0.22 PBM z-score against 500 random probes
B14	4.36 PBM z-score against 500 random probes
B22	-0.41 PBM z-score against 500 random probes
